The nature of the data set: soluble on expression in E. coli; label from the status in PepcDB or PDB records.
For the sequence “MKEHSIDIQLSHPDDLFHLFGSNERHLRLMEEELDVVIHARTEIVQVLGEESACEEARQVIQALMVLVNRGMTVGTPDVVTAISMVKNDEIDKFVALYEEEIIKDNTGKPIRVKTLGQKLYVDSVKQHDVTFGIGPAGTGKTFLAVTLAVTALKRGQVKRIILTRPAVEAGESLGFLPGDLKEKVDPYLRPVYDALYQILGKDQTTRLMEREIIEIAPLAYMRGRTLDDAFVILDEAQNTTIMQMKMFLTRLGFHSKMIVNGDISQIDLPRNVKSGLIDAQEKLKNIHQIDFVHFSAKDVVRHPVVAQIIRAYEYSTEVAHD”, the “soluble on expression in E. coli” value is listed as “not soluble”.

As to “MKEIELIATAAAGVESVVKHEVKKLGFKDITVDNGKIMFKGDISSIPRANLWLRSADRVLLKMGEFEALTFEELFDKTYALPWDQWITSDGKFTVLGKSVKSKLFSISDCQAIVKKAVVEKLKSKYHVEWFEESGPEYTIQVALHKDIATLTIDTSGTALHKRGYRAKNVEAPIKETLASAMILISYWNKRKPLWDCFCGSGTIPIEAALIGRNIAPGLNRTFASEEWPAIGKDIWKQERALALRAIDHDIKLKIYGSDINPDAIELAKENACLAGVDDCIEFFVSDFRNVNIKEDYGVIICNPPYGERIGEQQEVETINKDMGKTFSKYDTWSKYIITPFENFERLYGKKADKKRKFYNGNIKVDYYQYFGPKPTNT”, the “soluble on expression in E. coli” value is listed as “soluble”.

As to “MKEKIALITGVTGQDGSYLAEYLLNLGYEVHGLKRRSSSINTSRIDHLYEDLHSDHKRRFFLHYGDMTDSSNLIHLIATTKPTEIYNLAAQSHVKVSFETPEYTANADGIGTLRILEAMRILGLEKKTRFYQASTSELYGEVLETPQNENTPFNPRSPYAVAKMYAFYITKNYREAYNLFAVNGILFNHESRVRGETFVTRKITRAASAIAYNLTDCLYLGNLDAKRDWGHAKDYVKMMHLMLQAPIPQDYVIATGKTTSVRDFVKMSFEFIGINLEFQNTGIKEIGLIKSVDEKRANALKLNLSHLKKGQIVVRIDERYFRPTEVDLLLGDPTKAEKELDWVREYDLKELVKDMLEYDLKECQKNLYLQDGGYILRNFYE”, the “soluble on expression in E. coli” value is on record as “soluble”.

Take “MKEKIPFYNEKEFHDMVKKTKKGTFSGWYIIDKDNKSVEFSGSFNRQFKLNKPVIPVNTEYVTRKEFNEYKVSNDQRLTKIETTLAAQGEQINKLTQTVEKQGEQINQLVQVVLLHGEQINKLTQTVEKQGEQIKELQVEQKAQGEQIKAQGKQIKAQGKTLKSILQALGGINKRLDKIDPPKLEHHHHHH”: the “soluble on expression in E. coli” value is reported as “not soluble”.

Take “MKEKYKKSLYIPNELLLEIFADKNLDIQNIIVVSMVCKLWYELSLDNAVWRPLFIKRFSYSPTLANHSIFKEDYQKQLALTQAMKKKCESNHACRNEPGLLEAIREKNIPLIYALFESGHRIIIDSFPDGEQQFTEEMLGFLSECAELPSSLLARIFKRGFCTADMETSEFLALHFIVAEADEKLLQKIFRALGDDLLSVSRYCDLYDNNFFSSLLHFPVERFSLVLRLLYETLGKTKLSTLLVYQNHTYTDWSCIHSASRCGREYFFITLKYLKRQDYPVLLKKGLNDEDIPLFNIAYWGDKESLSHIINILGADATTFLKYKDNKGRNILLPALLSEDHSTVELIEKVMGMEFIDLLLMQDTNGRDILRRVMLLQEPTVLRRINTVLKLLRDYDCLDIAQELYSSDEFTQLISQNLYINQDETIELFNKYTEEKTNNFCSIL”: the “soluble on expression in E. coli” value was “not soluble”.

As to “MKENDLIPNVKVMIDVRNMNNISDTDGSPNDFTSIDTHELFNNKKILLISLPGAFTPTCSTKMIPGYEEEYDYFIKENNFDDIYCITNNDIYVLKSWFKSMDIKKIKYISDGNSSFTDSMNMLVDKSNFFMGMRPWRFVAIVENNILVKMFQEKDKQHNIQTDPYDISTVNNVKEFLKNNQL”, the “soluble on expression in E. coli” value was “soluble”.

Take “MKETNAGSVYSPELIEFATVGVEFCALVEQAAAHRTTDFIDKASKVLPLLYLKTALLPPYEYSEEVDFVEEYITEESYEQVRSAVESLLGSYDSFLDARHSDMQYSDTPVGASIGECLADVYQQVGNLLGVVRQSNDRAIPQAIGRCLTYFGEYWGNRLLAAAGALHELRYSEVYRTWEEEERAED”: the “soluble on expression in E. coli” value was “soluble”.

“MKEVARVRNLNRIIMGKYEIEPWYFSPYPIELTDEDFIYIDDFTLQYFGSKKQYERYRKKCTLRHPPGNEIYRDDYVSFFEIDGRKQRTWCRNLCLLSKLFLDHKTLYYDVDPFLFYCMTRRDELGHHLVGYFSKEKESADGYNVASILTLPQYQRMGYGKLLIEFSYELSKKENKVGSPEKPLSDLGLLSYRAYWSDTLITLLVEHQKEITIDEISSMTSMTTTDILHTAKTLNILRYYKGQHIIFLNEDILDRYNRLKAKKRRTIDPNRLIWKPPV”: the “soluble on expression in E. coli” value is “soluble”.

For “MKEYLTNERIRAKQVRVVGPDGKQLGIMDTREALRLAQEMDLDLVLVGPNADPPVARIMDYSKWRYEQQMAEKEARKKAKRTEVKSIKFRVKIDEHDYQTKLGHIKRFLQEGHKVKVTIMFRGREVAHPELGERILNRVTEDLKDLAVVEMKPEMLGRDMNMLLAPVKVSA”, the “soluble on expression in E. coli” value was “soluble”.

As for “MKFCYNVVTYCTKRKNNLQEYSIEITLQHPDDMMSLFGSNERHLKLIEENLDVIIHARTERVQVLGDSEEAVETARLTIEALLVLVNRGMTVNTSDVVTALSMAQNGSIDKFVALYEEEIIKDSYGKPIRVKTLGQKIYVDSVKNHDVVFGIGPAGTGKTFLAVTLAVTALKRGQVKRIILTRPAVEAGESLGFLPGDLKEKVDPYLRPVYDALYQILGKEQTSRLMEREIIEIAPLAYMRGRTLDDAFVILDEAQNTTIMQMKMFLTRLGFNSKMIVNGDVSQIDLPKNVKSGLIDAVEKLRNIKKIDFIHLSAKDVVRHPVVAEIINAYSDSESSHKLQSDKD”, the “soluble on expression in E. coli” value is “not soluble”.

As to “MKFGKEIAKKNQIIYRYIILKIQSFEWPANTRIFSERQLEIRFNSSRSQIRSVLATLLNKNIIRYTKNTPGYFVCKDVGFSFFHKTQDNLKVKYAKLSTLIKKLLSQDDASVFANIDSTVHLDKFKGIEAKFFDENKKHFLNVCFFAKDDILNILDENNLQQQFFREFAYNGIAIEKRHCVTSVDKESGCLVMYDMYYDDNDNFVVASKSNFLNPELKVINA”, the “soluble on expression in E. coli” value is reported as “soluble”.

With “MKFNIRGENIEVTPALKEYVEKKLSKLERYFDTFPEIKVNLKVYSDKQRVEVTIPFTDLLLRAEETNSDMYAAIDLVVDKIERQIRKHKTKVNRKLREKGSIKTNFILPEAVAVLDEVEEDELELVRTKRFDLKPMDVEEAILQMDMLGHNFFVFTNADTNETNVVYGRKDGKYGLIETKLEHHHHHH”, the “soluble on expression in E. coli” value is recorded as “soluble”.

As to “MKFTVGIAMNPLDQLPALARTAEECGFSSIALPDSLFFMEKQSADYPYTPDGSRMWNEETPWVDPLIAAAAMGAVTSKIEFYTQVLKLGSRNPVLLARQVGSVANLIGNRFGFGVGIGWAPEEFEWCGVPYKKRGARVDEMIDVIKLILGGGMVEYHGEFFDFDRLQMSPAPTKPVPFYVGGHTDVALRRAARVGDGWTSAMIKFDDLVQVIARLRELREEYGRADLPYEIQTVCIDRFGKDGYAELADAGVTDTIVVPWVFDGIGFDGPLEAKQDSLRKFADQYIG”, the “soluble on expression in E. coli” value was “not soluble”.

With “MKGDRLKANVLAVRLIPNVDSDMAKELGLPNEHRSIGILTADCDDVTYTALDEATKKAVVDVAYGKSFYGGAANANTKLAGEVIGILSGPTPAEVKSGLAAAVDFIENEAAFISANDDDSIAYFAHCISRTGTYLSKTAGIPEGESLAYLIAPPLEAMYALDVALKAADVRLVAFYGPPSETNFGGGLLTGSQSACKAACDAFAEAVKFVADNPLNY”, the “soluble on expression in E. coli” value is recorded as “soluble”.

On to “MKGERLDKVLARLGLGSRKEVARLVRQGKVRVLGQVVKDPGFRVPEGAALEVEGRPLEVRRHLHVLLHKPPGFVTSRTEGPSVYALLQGFPTRDLSPVGRLDKDAEGLLLFTTDGLLLHRLTHPRHKVAKRYLVHLERPVGPKDQEAFREGILLDGKKTLPAELTPLEDPTWAEVVLKEGRFHQIKRMFRARGNRVLRLKRLALGPLELGDLPPGKARPLTEAEEKALYAAVGLGGEDPEDEV”, for which the “soluble on expression in E. coli” value is “soluble”.

Consider “MKGFIDDANYSVGLLDEGTNLGNVIDNYVYEHTLTGKNAFFVGDLGKIVKKHSQWQTVVAQIKPFYTVKCNSTPAVLEILAALGTGFACSSKNEMALVQELGVSPENIIFTSPCKQVSQIKYAAKVGVNIMTCDNEIELKKIARNHPNAKVLLHIATEDNIGGEDGNMKFGTTLKNCRHLLECAKELDVQIIGVKFHVSSACKEYQVYVHALSDARCVFDMAGEFGFTMNMLDIGGGFTGTEIQLEEVNHVISPLLDIYFPEGSGIQIISEPGSYYVSSAFTLAVNIIAKKVVENDKFSSGVEKNGSDEPAFVYYMNDGVYGSFASKLSEDLNTIPEVHKKYKEDEPLFTSSLWGPSCDELDQIVESCLLPELNVGDWLIFDNMGADSFHEPSAFNDFQRPAIYFMMSFSDWYEMQDAGITSDAMMKNFFFAPSCIQLSQEDSFSTEA”, for which the “soluble on expression in E. coli” value is “soluble”.

For “MKGGCVSQWKAAAGFLFCVMVFASAERPVFTNHFLVELHKGGEDKARQVAAEHGFGVRKLEHHHHHH”, the “soluble on expression in E. coli” value is given as “not soluble”.

With “MKGITSLGSKWFVEFEKNNVHNVYDRIAEHFTKTRYRIWPGVELFLKQTSPLDTVLDVGCGNGKNLISYRNLFCIGIDRCVPLVKTCKQRQLETAVADILELPFQSEKFDIVLCIAVLHHLCTRERRILAIQELGRVLRPGGSCLLYVWAANENDGKDEVKNTKAREKMRFLDENKQEALIPWVVIDHEKKATQLEKNLKQPSTFTLERYYHLYRQGELEEECLQSNCFHIQHSYYEQSNWCVVLDKKS”, the “soluble on expression in E. coli” value is “soluble”.

As for “MKGTIFAVALNHRSQLDAWQEAFQQSPYKAPPKTAVWFIKPRNTVIGCGEPIPFPQGEKVLSGATVALIVGKTATKVREEDAAEYIAGYALANDVSLPEESFYRPAIKAKCRDGFCPIGETVALSNVDNLTIYTEINGRPADHWNTADLQRNAAQLLSALSEFATLNPGDAILLGTPQARVEIQPGDRVRVLAEGFPPLENPVVDEREVTTRKSFPTLPHPHGTLFALGLNYADHASELEFKPPEEPLVFLKAPNTLTGDNQTSVRPNNIEYMHYEAELVVVIGKQARNVSEADAMDYVAGYTVCNDYAIRDYLENYYRPNLRVKSRDGLTPMLSTIVPKEAIPDPHNLTLRTFVNGELRQQGTTADLIFSVPFLIAYLSEFMTLNPGDMIATGTPKGLSDVVPGDEVVVEVEGVGRLVNRIVSEETAK”, the “soluble on expression in E. coli” value was “soluble”.

“MKHLKFQSVFDIIGPVMIGPSSSHTAGAVRIGKVVHSIFGEPSEVTFHLYNSFAKTYQGHGTDKALVAGILGMDTDNPDIKNSLEIAHQKGIKIYWDILKDSNSPHPNTAKITVKNGDRSMSITGVSIGGGNIQVTELNGFSVSLTMNTPTLIIVHQDIPGMIAKVTDILSDFNINIAQMNVTRESAGEKAIMIIEVDSRDCQQAVKKIEAIPHLHNVNFFD”: the “soluble on expression in E. coli” value is given as “soluble”.

Consider “MKHTFKLSLLCSAILLAGCGDNTSSSGTTDKVTFESEVQALLDRGTSISFTIQGANADVPAPSYLLMDTSDGTLGLPTNGDDALTNPRASMNTMDGWSTSMPIVLNFNGDGFAPGMLASGVKVIKINQRLTEWDGKTNPIAKVLVQNQDYVVQANGKSLYVQFADSLDESSEYIFAVTQDVTDVNGEPIGTSSSYAVAKSKQVKYESGDLASVQAVTEAVEGIFGLAQVNPADIVYSSWFSTQSVGDTLAAVKGVTATGFATGANTLNTIYKNDTNENAVDLATAYTMVLGETQDFMTALDSDSDFNKYVSDLDAAKTAIKGLYVQSGASVNVTQGQVRLPHYLEKGANWNMQPMVSAMPSLAKLNAALTDPAEQANMVQQLSSGVFASSPVDVSKLATDPTEQLKLVGSKLYLNDGTQLDSERVITRYSPVPEVKSLENVEFLLFTPQNGVAKDVVIYQHGITSAKENAYAFAFNMVQTGVAVIAIDLPIHGTRSLDEQRSANANVLAYLNLSNLAVARDNLRQSVLDVLGLRASLVVSAQGGLLAGGPLQGFNPMTGSQVK”, for which the “soluble on expression in E. coli” value is “not soluble”.

Source of the values: the DeepSol protein solubility set.
